Results reported in EP4778937A1.
Substitutions are numbered along the chain they refer to. Blank lines part the entries; values can stand above or below the molecule they belong to.

Assays:
[1] = target: CD112 on MDA-MB-231-Luc-GFP and MDA-MB-231-CD155(-)-Luc-GFP cells (human) (UniProt Q92692); assay: flow cytometry of MDA-MB-231-Luc-GFP cells stained with the antibody, control incubated with PBS
[2] = target: CD112 (labelled CD112 molecule / CD112 antigen of Example 2) (UniProt Q92692); assay: flow cytometry, labelled CD112 on CAR-CHO cells; MFI of CD112-positive cells / MFI of TIGIT-positive cells
[3] = target: T1, CD155 (labelled CD155 molecule / CD155 antigen of Example 2) (UniProt P15151); assay: flow cytometry, labelled CD155 on CAR-CHO cells; MFI of CD155-positive cells / MFI of TIGIT-positive cells
T1 sequence (labelled for flow cytometry, label not stated, looked up): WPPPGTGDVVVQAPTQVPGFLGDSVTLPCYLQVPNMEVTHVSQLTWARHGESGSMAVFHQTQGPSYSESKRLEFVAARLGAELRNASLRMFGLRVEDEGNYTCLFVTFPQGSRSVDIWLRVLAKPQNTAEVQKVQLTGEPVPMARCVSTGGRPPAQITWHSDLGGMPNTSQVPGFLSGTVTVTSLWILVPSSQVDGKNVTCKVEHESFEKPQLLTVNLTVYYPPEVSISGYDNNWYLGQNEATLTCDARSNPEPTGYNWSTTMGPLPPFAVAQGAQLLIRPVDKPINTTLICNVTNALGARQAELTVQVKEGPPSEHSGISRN

MFI, fold over the control group [1]: 4 fold
Molecule: CD112 (Nectin2) Monoclonal Antibody (R2.525) PE

relative MFI of CD112 (CD112/TIGIT) [2]: 0.13
relative MFI of CD155 (CD155/TIGIT) [3]: 1.34
B1: CAR6 (TIGIT mutant peptide Mut6-CD28TM-28Z) (receptor)
chain: MMTGTIETTGNISAEKGGSIILQCHLSSTTAQVTQVNWEQQDQLLAIWNADLGWHISPSFKDRVAPGPGLGLTLQSLTVNDTGEYFCIYHTYPDGTYTGRIFLEVLESSVAEHGARFQIPFWVLVVVGGVLACYSLLVTVAFIIFWVRSKRSRGGHSDYMNMTPRRPGPTRKHYQPYAPPRDFAAYRSRVKFSRSADAPAYKQGQNQLYNELNLGRREEYDVLDKRRGRDPEMGGKPRRKNPQEGLYNELQKDKMAEAYSEIGMKGERRRGKGHDGLYQGLSTATKDTYDALHMQALPPR

relative MFI of CD112 (CD112/TIGIT) [2]: 0.16
relative MFI of CD155 (CD155/TIGIT) [3]: 1.03
B2: CAR30 (wild-type TIGIT polypeptide-CD28TM-28Z) (receptor)
chain: B1 chain with W48C
